Reference: the RNAGym collection of RNA variant scans (doi:10.1093/molbev/msab373)

B1: Azoarcus group I ribozyme (parent)
chain: GUGCCUUGCGCCGGGAAACCACGCAAGGGAUGGUGUCAAAUUCGGCGAAACCUAAGCGCCCGCCCGGGCGUAUGGCAACGCCGAGCCAAGCUUCGGCGCCUGCGCCGAUGAAGGUGUAGAGACUAGACGGCACCCACCUAAGGCAAACGCUAUGGUGAAGGCAUAGUCCAGGGAGUGGCGAAAGUCACACAAACCGG

Variants of: B1
Experiment: reverse-splicing fitness (ratio to wild type); higher = more active; in vitro selection; Mg2+ level not given
In short: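 An in vitro group I ribozyme library with randomized positions was T7-transcribed and gel-purified. In triplicate, 10 pmol RNA in EPPS pH 7.5 was reacted with 50 pmoles of a 30-nt RNA substrate for 1 h at 37 °C across several added MgCl2 levels (1–48 mM), then stopped with EDTA. Products were reverse transcribed from a substrate-complementary primer, PCR-amplified and sequenced (HiSeq 4000). Fitness is a variant's read proportion after selection over that before, normalised to wild type.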

Point of comparison: GUGCCUUGCGCCGGGAAACCACGCAAGGGAUGGUGUCAAAUUCGGCGAAACCUAAGCGCCCGCCCGGGCGUAUGGCAACGCGGAGCCAAGCUUCGGCGCCUGCGCCGAUGGAGGUGUAGUGACUAGACGGCACCCACCUAAGGCCAACGCUAUGGUGAAGGCAUAGUCAAGGGAGGGGCGAAAGUCACACAAACCGG, reverse-splicing fitness 0.00182. Against it:
- GUGCCUUGCGCCGGGAAACCACGCAAGGGAUGGUGUCAAAUUCGGCGAAACCUAAGCGCCCGCCCGGGCGUAUGGCAACGCGGAGCCAAGCUUCGGCGCCUGCGCCGAUGGAGGUGUAGUGACUAGACGGCACCCACCUAAGGCGAACGAUAUGGUGAAGGCAUAGUCUAGGGAGAGGCGAAAGUCACACAAACCGG — higher, 0.00563
- GUGCCUUGCGCCGGGAAACCACGCAAGGGAUGGUGUCAAAUUCGGCGAAACCUAAGCGCCCGCCCGGGCGUAUGGCAACGCGGAGCCAAGCUUCGGCGCCUGCGCCGAUGGAGGUGUAGUGACUAGACGGCACCCACCUAAGGCGAACGAUAUGGUGAAGGCAUAGUCUAGGGAGCGGCGAAAGUCACACAAACCGG — higher, 0.00452
- GUGCCUUGCGCCGGGAAACCACGCAAGGGAUGGUGUCAAAUUCGGCGAAACCUAAGCGCCCGCCCGGGCGUAUGGCAACGCGGAGCCAAGCUUCGGCGCCUGCGCCGAUGGAGGUGUAGUGACUAGACGGCACCCACCUAAGGCCAACGCUAUGGUGAAGGCAUAGUCAAGGGAGAGGCGAAAGUCACACAAACCGG — higher, 0.00186
- GUGCCUUGCGCCGGGAAACCACGCAAGGGAUGGUGUCAAAUUCGGCGAAACCUAAGCGCCCGCCCGGGCGUAUGGCAACGCGGAGCCAAGCUUCGGCGCCUGCGCCGAUGGAGGUGUAGUGACUAGACGGCACCCACCUAAGGCCAACGCUAUGGUGAAGGCAUAGUCAAGGGAGCGGCGAAAGUCACACAAACCGG — lower, 0.00168
- GUGCCUUGCGCCGGGAAACCACGCAAGGGAUGGUGUCAAAUUCGGCGAAACCUAAGCGCCCGCCCGGGCGUAUGGCAACGCGGAGCCAAGCUUCGGCGCCUGCGCCGAUGGAGGUGUAGUGACUAGACGGCACCCACCUAAGGCGAACGAUAUGGUGAAGGCAUAGUCAAGGGAGGGGCGAAAGUCACACAAACCGG — higher, 0.00251
- GUGCCUUGCGCCGGGAAACCACGCAAGGGAUGGUGUCAAAUUCGGCGAAACCUAAGCGCCCGCCCGGGCGUAUGGCAACGCGGAGCCAAGCUUCGGCGCCUGCGCCGAUGGAGGUGUAGUGACUAGACGGCACCCACCUAAGGCGAACGAUAUGGUGAAGGCAUAGUCAAGGGAGAGGCGAAAGUCACACAAACCGG — higher, 0.00843
- GUGCCUUGCGCCGGGAAACCACGCAAGGGAUGGUGUCAAAUUCGGCGAAACCUAAGCGCCCGCCCGGGCGUAUGGCAACGCGGAGCCAAGCUUCGGCGCCUGCGCCGAUGGAGGUGUAGUGACUAGACGGCACCCACCUAAGGCGAACGAUAUGGUGAAGGCAUAGUCAAGGGAGCGGCGAAAGUCACACAAACCGG — higher, 0.00503
- GUGCCUUGCGCCGGGAAACCACGCAAGGGAUGGUGUCAAAUUCGGCGAAACCUAAGCGCCCGCCCGGGCGUAUGGCAACGCGGAGCCAAGCUUCGGCGCCUGCGCCGAUGGAGGUGUAGUGACUAGACGGCACCCACCUAAGGCCAACGCUAUGGUGAAGGCAUAGUCCAGGGAGGGGCGAAAGUCACACAAACCGG — higher, 0.0054
- GUGCCUUGCGCCGGGAAACCACGCAAGGGAUGGUGUCAAAUUCGGCGAAACCUAAGCGCCCGCCCGGGCGUAUGGCAACGCGGAGCCAAGCUUCGGCGCCUGCGCCGAUGGAGGUGUAGUGACUAGACGGCACCCACCUAAGGCCAACGCUAUGGUGAAGGCAUAGUCCAGGGAGAGGCGAAAGUCACACAAACCGG — higher, 0.0131
- GUGCCUUGCGCCGGGAAACCACGCAAGGGAUGGUGUCAAAUUCGGCGAAACCUAAGCGCCCGCCCGGGCGUAUGGCAACGCGGAGCCAAGCUUCGGCGCCUGCGCCGAUGGAGGUGUAGUGACUAGACGGCACCCACCUAAGGCCAACGCUAUGGUGAAGGCAUAGUCCAGGGAGCGGCGAAAGUCACACAAACCGG — higher, 0.0205
- GUGCCUUGCGCCGGGAAACCACGCAAGGGAUGGUGUCAAAUUCGGCGAAACCUAAGCGCCCGCCCGGGCGUAUGGCAACGCGGAGCCAAGCUUCGGCGCCUGCGCCGAUGGAGGUGUAGUGACUAGACGGCACCCACCUAAGGCGAACGAUAUGGUGAAGGCAUAGUCGAGGGAGUGGCGAAAGUCACACAAACCGG — higher, 0.00639
- GUGCCUUGCGCCGGGAAACCACGCAAGGGAUGGUGUCAAAUUCGGCGAAACCUAAGCGCCCGCCCGGGCGUAUGGCAACGCGGAGCCAAGCUUCGGCGCCUGCGCCGAUGGAGGUGUAGUGACUAGACGGCACCCACCUAAGGCGAACGAUAUGGUGAAGGCAUAGUCUAGGGAGUGGCGAAAGUCACACAAACCGG — higher, 0.00426
- GUGCCUUGCGCCGGGAAACCACGCAAGGGAUGGUGUCAAAUUCGGCGAAACCUAAGCGCCCGCCCGGGCGUAUGGCAACGCGGAGCCAAGCUUCGGCGCCUGCGCCGAUGGAGGUGUAGUGACUAGACGGCACCCACCUAAGGCGAACGAUAUGGUGAAGGCAUAGUCAAGGGAGUGGCGAAAGUCACACAAACCGG — higher, 0.00593
- GUGCCUUGCGCCGGGAAACCACGCAAGGGAUGGUGUCAAAUUCGGCGAAACCUAAGCGCCCGCCCGGGCGUAUGGCAACGCGGAGCCAAGCUUCGGCGCCUGCGCCGAUGGAGGUGUAGUGACUAGACGGCACCCACCUAAGGCGAACGCUAUGGUGAAGGCAUAGUCCAGGGAGUGGCGAAAGUCACACAAACCGG — higher, 0.0663
